Common to all, as to assay: ABC (Antibody Binding Capacity) assay, receptor density
Format in all cases: cell-based

The test system of one experiment is H82. Here is the method: (§1) In order to test efficacy of the immunoconjugate binding with respect to target density receptor density was measured on target positive cell lines. Target density was measured using the ABC (Antibody Binding Capacity) assay. Cancer cells expressing the target of interest, as well as a negative control cell line, were harvested with cell dissociation buffer, seeded at about 5×10^4 cells per well into 96-well V bottom plate (Sarstedt 82.1583.001). Cells were tested for receptor expression using QuantiBRITE PE beads (BD Cat #340495) and a PE-conjugated anti-hu IgG (Biolegend clone HP6017) following the manufacturers' instructions. In brief, VHH-Fc and isotype control antibodies were prepared at suitable saturating concentrations based on previous experiments. Antibody sample dilutions were incubated with the panel of cell lines on ice for 1 hour. Cells were washed twice with 1% FBS in 1×PBS (FACS buffer), centrifuged at 400 G for 4 min. Cells were then incubated with 4 μg/mL mouse PE-conjugated anti-hu and DAPI (1:1000) for 30 minutes on ice. Cells were washed twice with FACS buffer, centrifuged at 400 G for 4 minutes and resuspended in FACS buffer. Fluorescence intensity on the PE channel was measured on the iQue Screener platform, and data were processed with ForeCyt software. The amount of PE signal generated from the different primary antibody was then fit to a standard curve based off of known PE molecules/Quantibrite bead samples to determine the number of antibody-binding sites per cell. Relative antibody binding sites correlate to the number of antigens or receptors on cell surface.

A further experiment has as its system SHP-77. The procedure:
as §1

The next experiment relates to HEK-DLL3. The procedure: as §1

B1: Rovalpituzumab: control antibody for DLL3 binding (Creative Biolabs #TAB-216CL) (antibody, chains of the INN, looked up, V domains shown)
VH: QVQLVQSGAEVKKPGASVKVSCKASGYTFTNYGMNWVRQAPGQGLEWMGWINTYTGEPTYADDFKGRVTMTTDTSTSTAYMELRSLRSDDTAVYYCARIGDSSPSDYWGQGTLVTVSS
VL: EIVMTQSPATLSVSPGERATLSCKASQSVSNDVVWYQQKPGQAPRLLIYYASNRYTGIPARFSGSGSGTEFTLTISSLQSEDFAVYYCQQDYTSPWTFGQGTKLEIK
As for B1, the “Estimated number of epitopes/cell” value in the experiment with H82 was 936 epitopes/cell; in the experiment with SHP-77, 969 epitopes/cell; in the experiment with HEK-DLL3 it was 1679 epitopes/cell.

The record behind these values is patent US20260183437A1, “VHH ANTIBODY CONJUGATES WITH HETEROARYL CHELATORS” (ABDERA THERAPEUTICS INC., priority 2022, published 2026).
